The values that follow come from a protein production outcome set (Wang et al. 2014).

A short description of the series: label from the status in PepcDB records.

Turning to “MKANNHFKDFAWKKCLLGASVVALLVGCSPHIIETNEVALKLNYHPASEKVQALDEKILLLRPAFQYSDNIAKEYENKFKNQTALKVEQILQNQGYKVISVDSSDKDDLSFSQKKEGYLAVAMNGEIVLRPDPKRTIQKKSEPGLLFSTGLDKMEGVLIPAGFVKVTILEPMSGESLDSFTMDLSELDIQEKFLKTTHSSHSGGLVSTMVKGTDNSNDAIKSALNKIFANIMQEIDKKLTQKNLESYQKDAKELKGKRNR”, the protein production entry is recorded as “failed”.

On to “MKAPELQIQQWFNSATDLTLADLRGKVIVIEAFQMLCPGCVMHGIPLAQKVRAAFPEDKVAVLGLHTVFEHHEAMTPISLKAFLHEYRIKFPVGVDQPGDGAMPRTMAAYQMRGTPSLLLIDKAGDLRAHHFGDVSELLLGAEIATLLGEAAPSVQKQAGTPQGDANCDNDGCTV”, for which the protein production entry is “not failed”. Take “MKAYTKLLASLVLLSGAYGAPGFANTPELSDKTFRTVNKVQELIATEKYADALSKLNSALSSTSKKQYDRAVLLQQMGFLYSLQDDYPKAAKYFADALSLNALPVPVAQQVRYSLAQLYLAEGQFKKSVATMNEWFKIAETTEEKPQAHAYITLASAYVQLEDYKNAIPPAKQAIAMSKEPSESWYQLLMSAHYELKQFKSVAGVLKILTTKYPKNKRYWTQLSGIYMELNQERNALSTLEMAHKMGLLEGEKEYLRLVNFQAYQGVPFRAAKTLQAAFDNGHVERNAKNLETLGSFWQQAQELEQAIDVYQQAYNLAPQAKTQIKIARLMILDKQYTEATKFTQNAAPDAKHEQKGELSYIRGMAYFELNQPSNALKAMKSAAQSPDMRAMASPWINFLESQG”: the protein production result is “failed”. In the case of “MKCKDDMSAVLTAEQALKLVGEMFVYHMPFNRALGMELERYEKEFAQLAFKNQPMMVGNWAQSILHGGVIASALDVAAGLVCVGSTLTRHETISEDELRQRLSRMGTIDLRVDYLRPGRGERFTATSSLLRAGNKVAVARVELHNEEQLYIASATYMVG”, the protein production result is given as “failed”. Regarding “MKCKRLNEVIELLQPAWQKEPDLNLLQFLQKLAKESGFDGELADLTDDILIYHLKMRDSAKDAVIPGLQKDYEEDFKTALLRARGVIKE”, the protein production result is recorded as “failed”. With “MKCNERDCNNDNGEEDEKDTNTTIAVKLPATTALIVGYDPIDDQHKALSLKRKRTEKLSFINALKGFVQWGSEAVFIEYKGKLASIDLETVKSLGALMDSKEPPAPVNLLF”, the protein production entry is recorded as “failed”. For “MKDKIIDNAITLFSEKGYDGTTLDDIAKSVNIKKASLYYHFDSKKSIYEQSVKCCFDYLNNIIMMNQNKSNYSIDALYQFLFEFIFDIEERYIRMYVQLSNTPEEFSGNIYGQIQDLNQSLSKEIAKFYDESKIKMTKEDFQNLILLFLESWYLKASFSQKFGAVEESKSQFKDEVYSLLNIFLKK” the value was “failed”; for “MKDKRTPMNAFRPKAQTALVVALSLFMAACSNNPLMRTSAATSSDVADEIDRTLEQAEQSQRAASNVSAVPAPSAADISSQLLPPLSSSPQQDERFDVNASEVPASSFFEALVAGTRYNVVVRPDVATTVSLRLSDVTVPEVMDIAADLYGLDITRSGRLYRVAADQVQTRLFPIDYLHFKRRGGSETRVSSGQVSSSRSNREGAGSNDNNEDNETRNLVGTTISTQTESDFWRDIRDALNMIVGGDNGQVVVNPGAGLVMVRAGADDLRLVENYLRKTELIMQRQVVLEAKILEVGLNEGYQQGIDWNDVQSSAGRADYFTSQSLGGQQIRTPDIGGLFSATVSAGDFTGLIELLGQQGNVQILSSPRISTVNNQKAVIKVGTDEFFVTDIDFDDNNSAVTATDSTSTSVELTPFFSGISLDVTPQIAEDGAITLHVHPSVSEVADQEKVITIGERDVTLPLARSTVRETDSVIRAESGQIVVIGGLIQNSSEDNNSAVPFFSEIPLLGELFKQRNFESRKSELVILLRPVVANAGQMQADVSASRERMNVLRELLNSSESVKPQPETAPR”, “failed”. For “MKDLIKVQQKLIPDLIDKMYRRFYILSTISQNQPVGRRSLSEHMDMTERVLRSETDMLKKQELIRVKPTGMEITNEGTEVLAQLGEYFNVYSDDHKLASAIKDKFHIKDVHVIPGDSDSNRTVKREMGQQAGQLLEGILYEDAIVSVTGGSTMACVSESIHLLPFNVFFVPARGGLGENVVYQANTIASSMAQQAGGYYTTLYVPDNVSESTYDTLMLEPSVMHTLDKIKQANITIHGIGDALKMAHRRQSSQNVIDNLQHHQAVGEAFGYYFDAQGQIVHKVKTIGLQLEDLENKDFIFAVAGGQSKGEAIKAYLSIAPENTVLITDEAAAKVILQ” the value was “not failed”. For “MKDPNSQYQIDYVLLFILFAIGIVSCCAIASAQASLPPFLQNVNFVLKQIQWYFIGFIAIGVIMIIDFDRYQKIAWYLYSFAMVLLIGLELQVPGAVTIKGATAWYRLPGIGNFQPSEIMKLFLIIVIGRIIANHNEKYFSQTIHDDFLLLGKIFATSLPPLLLIAKEPDLGNTMVISAMLAAMILVSGIRWRFIFGLVSGTFVAGSTLIYIFFTHTDFFKAHILKEYQLNRFYGWLAPYKYDAQGYQLRQAFLATGSGEMQGKGWENGQVYFPEPHTDFIFTNVAEQFGFLGASVIISLFFLLIFRMIHIALESNDPFGSYICAGTIGMFTFQVFQNIGMTIGLLPITGITLPLMSYGGSSLLTYMIAIGFILNVRSRTKIFMFK” the value was “failed”; for “MKDTDETAFLNSLFMDFTSENELELFLKSLDEVWSEDLYSRLSAAGLIRHVISKVWNKEQHRISMVFEYDSKEGYQKCQEIIDKEFGITLKEKLKKFVFKIHNNRGVVVSEFIRST”, “not failed”; for “MKDTFRLENQTIYFGTERAISASPQTIWRYLTETDKLKQWFPELEIGELGVNGFWRFILPDFEETMPFTDYAEEKYLGVTWDTGIIYFDLKEQAPHQTLLVFSESLPENFTTPRHKDIAGWSIVLNRLKQVVETPDAAPEKIDFPQIENHYLEKLTNLEN”, “not failed”. As for “MKEGKWFASANNQNKFLDPRERGNILNYLKVCLLLARAVRRMHAAGLCHSDLSYKNVLIDPEQGHACIIDVDGLVVPGKFPPDVVGTPDFIAPEVVKTSHLLKEDPQRILPNITTDRHALSVLIYMYLFYRHPLRGGKIHDMDDEVRDESLAMGERALFIEHPTDRSNAVKLNQVKPSSLPWADPQKVPYTIMGPYLTQLFEKAFIDGLHDPSKRPTADEWETALVKTVDLIQPCQNTACEQKWYVFSGKTKPVCPYCLEHHHHHH”, the protein production entry is recorded as “failed”.

In the case of “MKEIESKTSAKIITDTFVRIFLIFSLLITIIVSGIVAFTSLQIRKSEGAALLNSVQTAATNGQVNWDEFKLDSEKDEKATFVRLTSPSGQREESQGTTNFLKSRKSWGNFSLLRDDIFLYSSKTSKNGTKAELWLNINVVVKSMIRAILVIIAVMIFLFFLALILIQKAARTISQPLTDIVVATDGKDVKQVPVSKNPLEVHQLSQSFNRLLNRLNQKIENEQQFVSDASHELRTPVAAIRGHVNLLKRRWHEHPEIVDESLSYIDEESMRMKVLIENLLTISRGNHLEIKKERINLSKFTDKVVSEIQLALRQKINFDIQTDLFVSMDKMALYKIIIIFLENAGKYSPSNSEITINITLENHQVDFQVADEGIGVPEEEKDNIFERFYRIDKSRSSEIPGTGLGLAIAKEYAQLNDAKVFVSNNSPKGSTFHLLMESIEN”, the protein production entry is reported as “failed”.

Regarding “MKEIVTIENVSFNYHNRAVFKDFNLSIQEGDFLCVLGESGSGKSTLLGLILGLLKPSLGSVKIFNETLSNNAFLRQKIGYIAQGNSLFSHLNAMQNMTFCLNLQGINKQAAQKEAKALALKMGLDESLMDKFPNELSGGQAQRVGIIRGIIHRPELILLDEPFSALDSFNRKNLQDLIKEIHQNSHATFIMVTHDESEAQKLATKTLEIKALKQEQ”, the protein production result is “failed”. On to “MKEKENIQKIIIAMIQTVVVYFSASLTLTLITPNFKSNKDLLFVLLIHYIVFYLSDFYRDFWSRGYLEEFKMVLKYSFYYIFISSSLFFIFKNSFTTTRLSFFTFIAMNSILLYLLNSFLKYYRKYSYAKFSRDTKVVLITNKDSLSKMTFRNKYDHNYIAVCILDSSEKDCYDLKHNSLRIINKDALTSELTCLTVDQAFINIPIELFGKYQIQDIINDIEAMGVIVNVNVEALSFDNIGEKRIQTFEGYSVITYSMKFYKYSHLIAKRFLDITGAIIGLLICGIVAIFLVPQIRKDGGPAIFSQNRVGRNGRIFRFYKFRSMRVDAEQIKKDLLVHNQMTGLMFKLDDDPRITKIGKFIRKTSIDELPQFYNVLKGDMSLVGTRPPTVDEYEKYNSTQKRRLSFKPGITGLWQISGRNNITDFDEIVKLDVQYINEWSIWSDIKIILLTLKVVLLGTGAK”, for which the protein production entry is “failed”. As to “MKEKIPFYNEKEFHYMMKKTKKGTFSGWYIINPENNSVEFSGSFNRQFKLNKPVIPVNTEYVTRKEFNEYKDSNDQRLTKIENKVDKLEIKVDKLEKKVDKLEVKVDKLVETVNAQGEDLNNFKVEVRGTLQSQGETLQLILQTLQGMSKRLDSVEGRLDSMDGRLDSMETRLDKIDPLKLEHHHHHH”, the protein production entry was “failed”.

In the case of “MKELNDIEVTCVSGGTLSGMIVGAVDGAATGMAIGGKWGGAGGFGFGALSQLVGLIVPTAMGAIAGGTVGLFTNAETAVGYLGQYRENFGPGDVGRTTI”, the protein production entry is listed as “failed”. For “MKELNLTQGSVPKVLLQYAVPFLIANVLQALYGGADLFVVGQYDDSASVAAVAIGSQVMQTITGIILGITTGTTVLIAIATGAKDDKKVAFTIGSSVWLFSIIGVLLTLVMVVFHGRIAELMHTPIEAMADTKSYILVCSAGILFIVGYNVVCGILRGLGDSKTPLYFVALACVINIVLDFILVGYFHLGATGAAVATITAQGVSFMISLWFLYRHGFHFEFTRKDIRLNRNLAKKVMTLGAPIALQDALINISFLIITVIVNQMGVIASASLGVVEKIIVFAMLPPMAISSAVATMTAQNYGAGLIQRMNRCLASGIGIAFVFGVSVCVYSQFLPETLTAFFTKDAAVVSMAAEYLRGYSIDCIVVSFVFCINSYFSGQGNSLFPMIHSLIATFLFRIPLSYWFSQIDSSSLFIMGFAPPLSTVVSLLICIWYLRYTRKKVYLKGTMMPAMSN”, the protein production entry is “failed”. Consider “MKERRAPQPVVARCKLVLVGDVQCGKTAMLQVLAKDCYPETYVPTVFENYTACLETEEQRVELSLWDTSGSPYYDNVRPLCYSDSDAVLLCFDISRPETVDSALKKWRTEILDYCPSTRVLLIGCKTDLRTDLSTLMELSHQKQAPISYEQGCAIAKQLGAEIYLEGSAFTSEKSIHSIFRTASMLCLNKPSPLPQKSPVRSLSKRLLHLPSRSELISSTFKKEKAKSCSIM”, for which the protein production entry was “failed”. For “MKERVIITGANGQLGKQLQEELNPEEYDIYPFDKKLLDITNISQVQQVVQEIRPHIIIHCAAYTKVDQAEKERDLAYVINAIGARNVAVASQLVGAKLVYISTDYVFQGDRPEGYDEFHNPAPINIYGASKYAGEQFVKELHNKYFIVRTSWLYGKYGNNFVKTMIRLGKEREEISVVADQIGSPTYVADLNVMINKLIHTSLYGTYHVSNTGSCSWFEFAKKIFSYANMKVNVLPVSTEEFGAAAARPKYSIFQHNMLRLNGFLQMPSWEEGLERFFIETKSH” the value was “not failed”.
